Measurements from patent US20100247558A1 (RAMOT AT TEL AVIV UNIVERSITY, published 2010).
Several values for one entry are separate records, joined by “and”; a condition that tells them apart may be missing. Equal values may be shown once. Where no end group is shown, it is not given here.

Tests used:
[1] = biological target: T1, gp120451 (gp120 of HIV-1 isolate 451) (HIV-1 isolate 451); assay: quantitative ELISA (FIG. 7)
T1 construct: also called soluble monomeric gp120451

CD4 protein = biological target: T2, CD4 protein (UniProt P01730 26-394); assay: ELISA: m1 phage captured by anti-M13 antibody, incubated with CD4, probed with anti-CD4 mAb
T2 construct: also called soluble CD4

B1: m1 peptide (phage-displayed) (peptide)
peptide: CDRRDLPQWAKREC
modifications: not fully specified (C-terminus); cysteine pairing not given here; also: fused to N terminus of phage pVIII (mosaic fth1 phage)
notes: Tested as a fusion to protein 8 on filamentous phage (fth1 vector, mosaic phage); 12mer flanked by constant cysteines; not shown: fd phage protein 8 (pVIII) display carrier at the peptide's C end
With B1 the Kd [1] was 69 nM and 69.2 nM and the binding result (CD4 protein) was “no binding”.
